Laboratory results: the RNAGym collection of RNA variant scans (doi:10.1073/pnas.2313332121)

B1: TPR t1 (parent)
chain: GACCAAUCUGCCCUCAGAGCUCGAGAACAUCUUCGGAUGCAGAGGAGGCAGGCUUCGGUGGCGCGAUAGCGCCAACGUCCUCAACCUCCAAUGCAUCCCACCACAUGAUGAUGCCUGAAGAGCCUUGGUUUUUUG

Variants of: B1
Experiment: polymerase ribozyme fitness, log enrichment relative to wild type (log ratio); higher = more active; in vitro selection for triplet polymerase activity
Procedure, shortened: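 Input and output libraries were sequenced on Illumina after a single in vitro selection round, run in triplicate on PCR-built, transcribed mutant libraries of each subunit of a heterodimeric triplet polymerase ribozyme. Selection annealed libraries to a biotinylated primer, the partner subunit and triplets, incubated them frozen at −7 °C, then gel-excised extended constructs for streptavidin-bead capture and RT-PCR. Genotypes with ≥10 input reads and ≥1 read per output were kept. Fitness is the logarithm, taken in base 2, of genotype enrichment divided by wild-type enrichment, using inverse-variance-weighted replicate averages.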

Going from GACCAAUCUGCCCUCAGUGCUCGAGAACAUCUUCGGAUGCAAAGGAGGCAGGGUUCGGUGGCGCGAUAGCCCCAACGUCCUCAAUCUCAAAUGCAUCCCACCACAUGAUGAUGCCUGAAGAGCCUUGGUUUUUUG [A18U G42A C53G G71C C85U C89A] to GACCAAUCUGCCCCCAGAGCUCGAGAACAUCUUCGUAUGCAGAGGAGGCAGGGUUCGGUGUCGCGAUAGCGCCAACGUCCUCAACCUCCAAUGCAUCCCACCACAUGAUGAUGCCUGAAGAGCCUUGGUUUUUUG [U14C G36U C53G G61U], the “polymerase ribozyme fitness (log ratio)” value rises from -4.28 to -2.63.

Going from GACCAAUCUGUCCUCAGAGCUCGAGAACAUCUUCGGAUGCAGAGGAGGCAGGCUUUGGUGGCGCGAUAGCGCCAACGUCCUCAACCUCCAAUGCGUCCCACCACAUGAUGAUGCCUGAAGAGCCUUGGUUUUUUG [C11U C56U A95G] to GAACAAUCUGCCCUCAGAGCUCGAGAACAUCUUCGGAUGCAGGGGAGGCAGGCUUCGGUGGCGCGAUAGCGCCAACGUCCUCAACCUCCAAUGCAUCCCACCACAUGAUGAUGCCUGAAGAGCCUUGGUUUUUUG [C3A A43G], the “polymerase ribozyme fitness (log ratio)” value falls from -0.936 to -3.31.

Compared with GACCAAUCUGCCCUCAGAGCUCGAGAACAUCUUCGGAUGCAGAGGAGGCAGGCUUCGGUGGCGCGAUAGCGGCAACGUCCUCAACCUCCAAUGCAUCCCAACACAUGAUGAUGCCUGAAGAGCCGUGGUUUUUUG [C72G C101A U125G], GACCAAUCUGCCCUCAGAGCUCGAGAACAUCUUCGGAUGCAGAGGAGGCAGGCUUCGGUGGCGCGAUAGCGCCAACGUCCUCAACCUCCAAAGCAUCCCACCACAUGAUGAUACCUGAAGAGCCCUGGUUUUUUG [U92A G113A U125C] is lower in “polymerase ribozyme fitness (log ratio)” value: -1.8 for the first, -3.27 for the second.

Going from GACCAAUCUGCCCUCAGAGCUCGAGAACAUCUUCGGAUGCAGAGGAGGCAGGCUUCGGUGGCGCGAUAGCGCAAACGUCCUCAACCUCCAAUGCAUCCCACCACAUGAUGAUGCCUGAACAGCCUUGGUUUUUUG [C73A G120C] to GACCAAUCUGCCCUCAGAGGUCGAGAACAUCUUCGGAUGCAGAGGAGGCAGGCUUCGGUGGAGCGAUAGCGCCAACGUCCUCAACCUCCAAUGCAUCACACCACAUGAUCAUGACUGAAGAGCCUUGGUUUUUUG [C20G C62A C98A G110C C114A], the “polymerase ribozyme fitness (log ratio)” value falls from 1.81 to -8.01.

Compared with GACCAAUCUGCCCUCAGAGCUCGAGAUCAUCUUCGGAUGCAGAGGAGGCAGGCUUCGGUGGCUCGAUAGCGCCAACGUCCUCAACCUCCAAUGCAUCCCACCACAUGAUGAUGCCUGAAGAGCCUUGGUUUUUUG [A27U G63U], GACCAAAUUGCCCUCAGAGCUCGAGAACAUCUUCGGAUGCAGAGGAGGCAGGCUUCGGUCGCGCGAUAGCGCCAACGUCCUCAACCUCCAAUGCAUCCCACCACAUGAUGAUGCCUGAAGAGCCUUGGUUUUUUG [U7A C8U G60C] is higher in “polymerase ribozyme fitness (log ratio)” value: -5.66 for the first, -0.91 for the second.

Going from GACCAAUCUGCCCUCAGAGCUUGAGAACAUCUUCGGGUGCAGAGGAGGCAGGCUUCGGUGUCGCGAUAGCGCCAACGUCCUCAACCUCCAAUGCAUCCCACCACAUGAUGACGCCUGAAGAGCCUGGAUUUUUUG [C22U A37G G61U U112C U126G G128A] to GACCAAUCUGCCCUCAGAGCUCGAGAACAUCUUCGGAUGCAGCGGAGGCAGGCUUCGGUGGUGCGAUAGCGGCAACGUCCUCAACCUCCAAUGCAUCCCACCACAUGAUGAUGCCUGAAGAGCCUUGGUUUUUUG [A43C C62U C72G], the “polymerase ribozyme fitness (log ratio)” value rises from -4.46 to -4.05.

Going from GACUAAGCUGCCCUCAGAGCUGGAGAACAUCUUCGGAUGCAGAGGAGGCAGGCUGCGGUGGCGCGAUAGCGCCAACGUCCUCAACCUCCACUGCAUCCCACCACAUGAUGAUGCCUGAAGAGCAUUGGUUUUUUG [C4U U7G C22G U55G A91C C124A] to GACCAAUCUGCCCUCAGAGCUCGAGAACAUCUUGGGAUGCAGAGGAGGUAGGCUUCGGUGGCGCGAUAGCGCCAACGUCCUCAACCUCCAAUGCAUCCCACCACAUGAUGAUGCCUGAAGAGCCUUGGUUUUUUG [C34G C49U], the “polymerase ribozyme fitness (log ratio)” value falls from -3.16 to -6.27.

First: GACCAAUCUGCCCUCAGAGCUCGAGAACAUCUUCGGAUGCAGAGGAGGCAGGCUUCGGUGGCGCGAUAGCGCCAACGUCCUAAACCUCCAAUCCAUCCCACCACAUGAUGAUGCCUGAAGAGCCUUGGUUUUUUG [C82A G93C]
Second: GACCAAGCUGCCCUCAGAGCUCGAGAACAUCUUCGGAUGCAGAGCAGGCAGGCUUCGGUGGCGCGAUAGCGGCAACGUCCUAAACCUCCAAUGCAUCACACCACAUGAUGAUGCCUGAAGAGCCUUGGUUUUUUG [U7G G45C C72G C82A C98A]
The “polymerase ribozyme fitness (log ratio)” value of the first is higher: -1.06 for the first, -5.33 for the second.

Compared with GACCAAUCUGCCCUCAGAGCUCGAGAACAUCUUUGGAUGUAGAGGAGGCAGGCCUCGGUGGCGCGAUAGCGCCAACGUCCUCAACCUCCAAUGCAUCCCACCACAUGAUGAUGCCUGAAGAGCCUUGGUUUUUUG [C34U C40U U54C], GACCAAUCUGCCUUCAGAGAUCGAGAACAUCUUCGGAUGCAGAGGAGGCAGGCUUCGGUGGCGCGAUAGCGACAACGUCCUCAACCUCCAAUGCAUCCCACCACAUGAUGAUGCCUGAAGAGCCUUGGUUUUUUG [C13U C20A C72A] is higher in “polymerase ribozyme fitness (log ratio)” value: -4.99 for the first, -2.75 for the second.

First: GACCAAUCUGCCCUCAGAGCUCGAGAACAUCUUCGGAUUCAGAGGAGGCAGGCUUCGGUGGCGCGAUAGCGCCAACGUCCUCAACCUCCAAUGCAACCCACCACAUGAUGAUGCAUGAAGAGCCUGGGUUUUUUG [G39U U96A C115A U126G]
Second: GACCAUUCUGCCCUCAGAGCUCGAGAACUUCUUCGGAUGCAGAGGAGGCAGGCUUCGGUGGCGCGCUAGCGCCAACGUCCUCAACCUCCAAUGCAUCCCACCACAUGAUGAUGCGUUAAGAGCCUUGGUUUUUUG [A6U A29U A66C C115G G117U]
The “polymerase ribozyme fitness (log ratio)” value of the first is lower: -6.69 for the first, -6.19 for the second.

In the case of GACCAAUCUGCCCUCAGAGCUCGAGAACAUCUUCGGAUGCAGAGGAGGCAGGCUUCGGUGGCGCGAUAGCGGCAACGGCCUCAACCUCCAAUGCAUUCCACCACAUGAUGAUGCCUGAAGAGCCUUGGUUUUUUG [C72G U78G C97U], the “polymerase ribozyme fitness (log ratio)” value is reported as 0.186.
